The supplement of paper PMC9170038

System: MS2 coat protein
Assay: apparent KD of MS2 coat protein; higher = weaker reporter binding
Conditions: Eterna round: R107
Outline: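 Designed RNA switches were transcribed on-chip from Illumina sequencing clusters. SNAP-549-labelled MS2 coat protein was titrated onto them in twofold steps from 0.7 or 1.5 nM to 3 µM in 100 mM Tris-HCl pH 7.5, 80 mM KCl, 4 mM MgCl2, either without or with constant ligand. Apparent KD reflects the per-design median of normalised cluster binding-curve fits.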

[1] = input ligand: theophylline 20 uM
[2] = input ligand: theophylline 2 mM
[3] = input ligand: tryptophan 2.4 mM

Sequence	apparent KD of MS2 coat protein (input ligand: arginine 13.2 mM) [nM]	apparent KD of MS2 coat protein (input ligand: none) [nM]	apparent KD of MS2 coat protein [1] [nM]	apparent KD of MS2 coat protein [2] [nM]	apparent KD of MS2 coat protein [3] [nM]
CUCUGAGUGAGAAAUCACUCAGAGGCGGAUACCAGCGAGGUCCAUCGCCCUUGGCAGCCGAACAUGAGGAUCACCCAUGUCGGUA [#1 Same State - Theophylline A Attempt #21 (HarryS)]	9.9	10.8	14	14.5	9.34
CUCUUGGCCGCAGUACGUUUAUAGACCUAUCGAGGACCGGUACGGCCGCCACUCGGUUAGUCACAUGAGGAUCACCCAUGUGUCC [theeternabot_exclusion_MS2_Trp_A_38]	17		23	19.7	
CUUAUAUAUACGGCCGCCACUUACUCAUGAGGUAACAACAUGAGGAUCACCCAUGUUUGAGGAUCAAGGACCGGGUAUAUAUAAG [AstrosSSTry#18]	23.2		35.9	33.8	
GAACAUGAGGAUCACCCAUGUGAGAAUGAUACCAGUAGAAGAAGAUGCCCUUGGCAGCGUGCGUGAGGAUCACCCAUGUAGGAGG [e-theoA-0]	30		34.1		25.9
GAAGAUCCGUAAGAUACCAGUGCAGAUCGGCACAUGAGGAUCACCCAUGUAAAGCAAGAACACCCUUGGCAGCUUUCGUAACAAC [theeternabot_sameState_MS2_Theo_B_15]	66.9		64.8		109
GAAGCUCGCGAUGAUACCAGCUCGACUGAUAACAUGAGGAUCACCCAUGUUGUGCGCCCUAGCCCUUGGCAGCAUGACAUAUUCG [theeternabot_sameState_MS2_Theo_B_46]	47.5		126		97.8
GAGCGCGUGGACUGGCGUGCUCCGCUCCGUCGAGGACCGGUACGGCCGCCACUCGACAUGAGGAUCACCCAUGUGCGCGCUCGCU [#1 Exclusion - Tryptophan A Attempt #23 (HarryS)]	7.37	27	177	27.8	19.8
GAGUAGAGGACGGCCGCCACUAAACAUGAGGAUCACCCAUGUCGUGAUCCGUUACCUAGGGUAGAUAGGACCGGGUCAUGUAGUC [Exclusion Tryptophan B GF 17]	47.7		65.8	84.7	
GAUAUAUACUCGGCCGCCACUGAGAGAGUCAUGUAAACAUGAGGAUCACCCAUGUAAUAUAUAUACAGGACCGGGAGUAUAUUAA [4.C]	16		16.1	14	
GAUCCUCAUACGGAUACCAGCGAAUAACAUGAGGAUCACCCAUGUAAUAAAGAAAAUAAAUGCCCUUGGCAGCCGAAUAGAUAGU [Same State Theophylline B GF 1]	36.2		137		91.1
GAUGAACUAUAUGAUACCAGACAACAUGAGGAUCACCCAUGUGAAAGUCGUCCUCUGCCUGUCCCUUGGCAGCGUAUAGUUUAUC [XTheo B #14]	61.1		76.1		28.4
GAUGAACUAUAUGAUACCAGACAACAUGAGGAUCACCCAUGUGAUUGUCGUCCUCUGCCUGUCCCUUGGCAGCGUAUAGUUUAUC [XTheo B #16]	38.4		87.4		23.4
GAUGAACUAUUCGAUACCAGACCACAUGAGGAUCACCCAUGUGUGUUUCGUCCUUAGCCGGUCCCUUGGCAGCGAAUAGUUUAUC [#28 Exclusion-TheophyllineB]	25.8		30.3		19.4
GAUUUUACAAAAGUAAAAUCAGUGGGUGAACGAGGACCGGUACGGCCGCCACUCGGACAUGAGGAUCACCCAUGUCCAUGUGAAA [AstrosExyTryA#21]	17.1	15.7	18.4	20.6	61.9
GCACAAGAUGGAAGGAGCGCUGGAAAAGGUCACAUGAGGAUCACCCAUGUUCUCCGAACCGAGCAGGUAGGUCGCUAUCUUGUGC [#09 Same State - Arginine B]	37.5	41.9	59.9	50.7	41.7
GCACCAGGUACGGAUACCAGCUGCCAUAGUUACAUGAGGAUCACCCAUGUGAUCUAUUGUAGCCCUUGGCAGCUGUACCUGGUGC [SSThB NP+V+V2 #5 Same Structure]	71.2		398		46.8
GCACGACAUGAGGAUCACCCAUGUGCAGAUACCAGUAAUGUAUGUUACCCUUGGCAGCUGAGUAGGUCUGGAGGGCUAUAGGUAA [Same State Theophylline A GF12]	10.6		18		13.7
GCACGGGCGAUCGGCACUUUUACUAAUAUACGAGGACCGGUACGGCCGCCACUCGAGCUAAGACAUGAGGAUCACCCAUGUAACG [theeternabot_exclusion_MS2_Trp_A_41]	22		30	30.4	
GCCGCGGCCGCGAUACACAUGGGUGUGUAACGAGGACCGGUACGGCCGCCACUCGAGAUGGCACAUGAGGAUCACCCAUGUGUGC [Exclusion Tryp A GF16]	17.1	24.1	60.2	44.5	29.9
GCGAUGGAGCGAAGGAGCGUGCUAGUACAUGAGGAUCACCCAUGUGAGUCGCAGCGCUAAGCACAGGUAGGUCGCGCUCCAUCGC [EAB NP+V+V2 #12]	31.1	48.4	26.8	49.7	40.5
GCGGACAUGAGGAUCACCCAUGUAAAUCCUCGAGGACCGGUACGGCCGCCACUCGAACGAGUGGCGCGCGAGCGCGCGCUCGCGC [aBa]	39.4	30.2	60.3	36.4	45.7
GCGUGGUCUGCGGCCGCCACUCAAGGAGCUACAUAGCUCCUAGACAUGAGGAUCACCCAUGUCGCGAGGACCGGGUAGAUUCUCC [Same State Typptophan B GF10]	40.2		134	120	
GCUAGGUCUACGGCCGCCACUAGACGUGGGUAAGACAUGAGGAUCACCCAUGUACUACAGGCGCAUAGGACCGGGUAGACCUAGC [SSTB NP+V+V2 #11 Same Structure]	49.6	78.9	74.5	82.6	13.2
GCUAUGGCUAGAAGGAGCGUGAAUUUCAGAAAACAUGAGGAUCACCCAUGUAAGGAUAUGACACAGGUAGGUCGCUAGCCAUAGC [SSAB NP+V+V2 #19]	9.88	10.8	10.5	12.5	10.8
GCUGCCAUACGAAGGAGCGCUGUUGCAAUGAGGCGAACAUGAGGAUCACCCAUGUGGCAAAAGCAGGUAGGUCGCGUAUGGCAGC [EAB #17]	20.4	20.5	29.3	23.4	20.2
GCUGCUUAGGGAAGGAGCGCUGCGGAAUUGUGGAGGACAUGAGGAUCACCCAUGUUCCUGCGGCAGGUAGGUCGCUUUGGGCAGC [#17 Exclusion - Arginine B]	32.8	40.3	48.1	60.5	45.3
GCUGCUUUGGGAAGGAGCGCUGCGGUAUUGUGGCGGACAUGAGGAUCACCCAUGUGCCUGCAGCAGGUAGGUCGCUUAGGGCAGC [EAP NP+V+V2 #17]	54	68.8	92	79.8	58.4
GCUGUACCAUGAAGGAGCGCUUUAAUUAUAGAAGAUACAUGAGGAUCACCCAUGUUCCUCGAGCAGGUAGGUCGCAUGGUACAGC [SSAB #18]	25.4	20.3	33	27	22.9
GGACAUGCAGGAAGGAGCGACACGCAGAAACUGCAAAAUCCUCCACACGAGGAUCACCCGUGUCAGGUAGGUCGCCUGCAUGUCG [ArgXB 15 #Zipper #MS2Left #StaticStem #Blueprint]	88.8	73.3	140	127	110
